Data from PMC6430397, “The pharmacological properties of 3-arm or 4-arm DOTA constructs for conjugation to α-melanocyte-stimulating hormone analogues for melanoma imaging” (PLoS ONE, 2019).

Key:
[1] = Stability analysis in plasma, liver and kidney of mice, ex vivo TLC; set-up: species or system mouse; settings: γ-counter, mean ± SD, n = 3 mice; for Fraction ratio of intact radiotracer, Plasma (%): B16-F1-bearing C57BL6 mice; for Fraction ratio of intact radiotracer, Plasma (%) / Fraction ratio of intact radiotracer, Liver (%): reverse-phase TLC; for Fraction ratio of intact radiotracer, Liver (%): liver homogenate
Method: All animal studies were conducted following approval by the Animal Care Committee of Kanazawa University (AP-122339). Fasted B16-F1-bearing C57BL6 male mice (5 weeks old) were administered ^111In-labeled 3-arm or 4-arm DOTA-α-MSH (3.7 MBq/mouse) via the tail vein. At 10, 30, 60, 120, and 180 min after injection, mice (n = 3 per time point) were euthanized with isoflurane, and blood and liver were collected and analyzed with thin layer chromatography (TLC). Briefly, 300 uL blood in a heparinized tube was centrifuged at 18,000 ×g at 4°C for 5 min. A total of 30 uL perchloric acid was added to the supernatant, which was centrifuged again, after which the final supernatant was spotted onto the TLC plate as plasma. Krebs-Ringer phosphate buffer (pH 7.4) was added to the liver samples, followed by homogenization with an ultrasonic homogenizer (SONIFIER250, Branson, MO, USA). Then, ethanol was added to the homogenate to remove proteins, and the sample was centrifuged at 18,000 ×g at 4°C for 5 min. The final supernatant was spotted onto the reverse-phase TLC plate, and the TLC spots were developed using 50 mM EDTA (pH 4–5) solvents. After development and complete drying, the TLC plates were cut into 21 fractions, and the radioactivity associated with each fraction was quantified using a γ-ray counter. The fraction ratios of ^111In^3+, ^111In-labeled 3-arm or 4-arm DOTA-α-MSH, and all metabolites were calculated by dividing the radioactive counts for each fraction by the total radioactivity counts.

[2] = Partition coefficient, n-octanol / 0.1 M phosphate buffer; assay type: physicochemical; settings: shake-flask, 2.0 mL n-octanol / 2.0 mL 0.1 M phosphate buffer pH 7.4, room temperature, 20 uL radioactive sample, mixed twice 1 min, radioactivity counting; mean ± SD; read-out: Partition coefficient, log (n-octanol/0.1 M phosphate buffer)
Method: The partition coefficients of ^111In-labeled 3-arm and 4-arm DOTA-α-MSH were measured using 2.0 mL n-octanol as the organic phase and 2.0 mL 0.l M phosphate buffer as the aqueous phase (pH 7.4 for plasma). N-octanol and the buffer were pre-mixed twice using a mechanical mixer for 1 min at room temperature. Then, 20 µL radioactive sample were added and mixed twice using a mechanical mixer for 1 min at room temperature. The radioactivity of 200 uL of each phase was measured after centrifugation. Calculation of log (n-octanol/0.l M phosphate buffer) was performed.

[3] = test system: B16-F1 melanoma-bearing mice; test: Biological distribution in B16-F1 melanoma-bearing mice; assay type: in vivo, mouse; settings: for Melanoma-to-blood ratio / Melanoma-to-kidney ratio / Melanoma-to-muscle ratio: mean ± SD, four mice
Method: C57BL6 male mice (5 weeks old) were transplanted with B16-F1 cells (5 × 10^5 cells/100 μL) into the thigh of the mice. […] The mice were housed and continuously monitored each day for 2 weeks in a 12-hour light/12-hour dark cycle with free access to food and water. The tumor size reached 8.7 ± 2.8 mm at 2 weeks after transplant of cells. Two mice with tumor sizes of 13 and 15 mm were excluded from our experiments. Mice with a tumor size <10 mm were fasted with no food overnight with water supplied ad libitum before experiments.
For biological distribution studies, B16-F1-bearing mice were administered ^111In-labeled 3-arm or 4-arm DOTA-α-MSH via the tail vein (37 kBq/mouse). At 10, 30, 60, 120, and 180 min after injection, the mice were euthanized under isoflurane (n = 3 per time point), and the following tissues were collected: brain, lung, heart, stomach, liver, small intestine, large intestine, kidney, blood, muscle, and B16-F1 melanoma. Tissues were weighed, and radioactivity was quantified using an automated γ-ray counter to calculate the percent injected dose (%ID) or percent injected dose per gram of tissue (%ID/g).
For SPECT imaging, ^111In-labeled 3-arm or 4-arm DOTA-α-MSH was injected into the tail vein of four B16-F1-bearing mice in total (37 MBq/mouse). For SPECT imaging, acquisition was started at 10 min after injection and continued every 10 min for 180 min. The data were reconstructed using the ordered subset expectation maximization method with 16 subsets and six iterations including no scatter and attenuation correction. The voxel size was set to 0.8×0.8×0.8 mm. Post-reconstruction smoothing filtering was applied using a 1.0-mm Gaussian filter. […] In these images, three to five regions of interest were placed over the kidney, muscle, and B16-F1 melanoma in which accumulation could be seen, and the time activity curve of each was obtained as the %ID/g.

[4] = Stability analysis in plasma, liver and kidney of mice, ex vivo TLC; set-up: species or system mouse; settings: γ-counter, mean ± SD, n = 3 mice
[5] = 10 min after i.v. injection 3.7 MBq/mouse
[6] = 30 min after i.v. injection 3.7 MBq/mouse
[7] = 60 min after i.v. injection 3.7 MBq/mouse
[8] = 120 min after i.v. injection 3.7 MBq/mouse
[9] = 180 min after i.v. injection 3.7 MBq/mouse
[10] = average over all acquisition time points

CSCC[C@H](NC(=O)[C@H](CO)NC(=O)[C@H](Cc1ccc(O)cc1)NC(=O)[C@H](CO)NC(C)=O)C(=O)N[C@@H](CCC(=O)O)C(=O)N[C@@H](Cc1c[nH]cn1)C(=O)N[C@@H](Cc1ccccc1)C(=O)N[C@@H](CCCNC(=N)N)C(=O)N[C@@H](Cc1c[nH]c2ccccc12)C(=O)NCC(=O)N[C@@H](CCCCNC(=S)Nc1ccc(C[C@H]2CN(CC(=O)O)CCN(CC(=O)O)CCN(CC(=O)O)CCN2CC(=O)O)cc1)C(=O)N1CCC[C@H]1C(=O)N[C@H](C(=O)O)C(C)C [^111In-labeled 4-arm DOTA-α-MSH, metal not drawn]
Fraction ratio of intact radiotracer, Plasma (%) [1, 5]: 96.0 ± 2.5% | Fraction ratio of intact radiotracer, Liver (%) [1, 5]: 95.1 ± 2.9% | Fraction ratio of intact radiotracer, Plasma (%) [1, 6]: 95.8 ± 2.6% | Fraction ratio of intact radiotracer, Kidney (%) ([1]; 30 min after i.v. injection 3.7 MBq/mouse, kidney, TLC): 95.8 ± 1.9% | Fraction ratio of intact radiotracer, Liver (%) [1, 6]: 94.9 ± 2.1% | Fraction ratio of intact radiotracer, Plasma (%) [1, 7]: 92.1 ± 2.1% | Fraction ratio of intact radiotracer, Liver (%) [1, 7]: 91.3 ± 3.2% | Fraction ratio of intact radiotracer, Plasma (%) [1, 8]: 84.2 ± 2.2% | Fraction ratio of intact radiotracer, Liver (%) [1, 8]: 78.6 ± 4.9% | Fraction ratio of intact radiotracer, Plasma (%) [1, 9]: 80.8 ± 2.3% | Fraction ratio of intact radiotracer, Liver (%) [1, 9]: 76.2 ± 4.1% | logD [2]: -0.13 ± 0.04 | Melanoma-to-blood ratio ([3]; 10 min after injection): 0.55 ± 0.14 | Melanoma-to-kidney ratio ([3]; 10 min after injection): 0.13 ± 0.07 | Melanoma-to-muscle ratio ([3]; 10 min after injection): 22.20 ± 3.35 | Melanoma-to-blood ratio ([3]; 30 min after injection): 1.11 ± 0.28 | Melanoma-to-kidney ratio ([3]; 30 min after injection): 0.17 ± 0.11 | Melanoma-to-muscle ratio ([3]; 30 min after injection): 18.75 ± 4.45 | Melanoma-to-blood ratio ([3]; 60 min after injection): 3.31 ± 0.35 | Melanoma-to-kidney ratio ([3]; 60 min after injection): 0.41 ± 0.15 | Melanoma-to-muscle ratio ([3]; 60 min after injection): 41.75 ± 6.38 | Melanoma-to-blood ratio ([3]; 120 min after injection): 41.09 ± 4.78 | Melanoma-to-kidney ratio ([3]; 120 min after injection): 0.72 ± 0.18 | Melanoma-to-muscle ratio ([3]; 120 min after injection): 113.00 ± 7.33 | Melanoma-to-blood ratio ([3]; 180 min after injection): 155.81 ± 12.93 | Melanoma-to-kidney ratio ([3]; 180 min after injection): 0.93 ± 0.15 | Melanoma-to-muscle ratio ([3]; 180 min after injection): 155.81 | Melanoma-to-muscle ratio ([3]; 180 min after injection, listed as 4-arm DOTA-α-MSH): 155.81 ± 8.63 | Higher average accumulation in B16-F1 melanoma than 111In-labeled 3-arm DOTA-α-MSH [3, 10]: 1.32 fold | Lower average accumulation in kidney than 111In-labeled 3-arm DOTA-α-MSH [3, 10]: 1.38 fold | Fraction ratio of intact radiotracer, Kidney (%) [4, 5]: 96.1 ± 2.0% | Fraction ratio of intact radiotracer, Kidney (%) [4, 7]: 93.3 ± 3.5% | Fraction ratio of intact radiotracer, Kidney (%) [4, 8]: 84.5 ± 3.3% | Fraction ratio of intact radiotracer, Kidney (%) [4, 9]: 80.5 ± 2.8%
